# According to patent US20050227296A1, “Method for indentifying integrin antagonists” (The General Hospital Corporation, a Massachusetts …, priority 1988, published 2005):
# Legend:
# [1] = target: complement iC3b on erythrocytes (EAiC3b) (human) (UniProt P01024); experiment: fluid-phase rA-domain against EAiC3b binding to immobilized rA-domain
# [2] = target: recombinant Ancylostoma caninum neutrophil adhesion inhibitor (NIF) (Ancylostoma caninum); experiment: competition: fluid-phase r11bA against biotinylated rNIF binding to immobilized r11bA, plate assay
# [3] = target: recombinant Ancylostoma caninum neutrophil adhesion inhibitor (NIF) (Ancylostoma caninum); experiment: competition: fluid-phase r11bA against biotinylated rNIF binding to human neutrophils, FACS
# [4] = target: CD11b/CD18 on human neutrophils (human) (UniProt P05107); experiment: dissociation of biotinylated rNIF from washed neutrophils at 4 C, FACS
# [5] = target: CD11b/CD18 on human neutrophils (human) (UniProt P05107); experiment: Scatchard plot, biotinylated rNIF on resting or activated neutrophils at 4 C, FACS
# [6] = target: CD11b/CD18 on human neutrophils (human) (UniProt P05107); experiment: time course of biotinylated NIF binding to neutrophils at 4 C, FACS
# [7] = target: CD11b/CD18 on human neutrophils (human) (UniProt P05107); experiment: biotinylated rNIF on f-met-leu-phe activated against resting neutrophils, FACS
# [8] = target: recombinant CD11b A domain (human) (UniProt P11215); experiment: Scatchard analysis of biotinylated rNIF binding to immobilized rA-domain
# [9] = target: recombinant human CD11b/CD18 expressed in COS cells (human) (UniProt P05107); experiment: rNIF against EAiC3b binding to recombinant CD11b/CD18 on COS cells, fluorescence
# Sequence of complement iC3b on erythrocytes (EAiC3b) (human) (P01024 23-667 limits assumed, chain 1 of 3): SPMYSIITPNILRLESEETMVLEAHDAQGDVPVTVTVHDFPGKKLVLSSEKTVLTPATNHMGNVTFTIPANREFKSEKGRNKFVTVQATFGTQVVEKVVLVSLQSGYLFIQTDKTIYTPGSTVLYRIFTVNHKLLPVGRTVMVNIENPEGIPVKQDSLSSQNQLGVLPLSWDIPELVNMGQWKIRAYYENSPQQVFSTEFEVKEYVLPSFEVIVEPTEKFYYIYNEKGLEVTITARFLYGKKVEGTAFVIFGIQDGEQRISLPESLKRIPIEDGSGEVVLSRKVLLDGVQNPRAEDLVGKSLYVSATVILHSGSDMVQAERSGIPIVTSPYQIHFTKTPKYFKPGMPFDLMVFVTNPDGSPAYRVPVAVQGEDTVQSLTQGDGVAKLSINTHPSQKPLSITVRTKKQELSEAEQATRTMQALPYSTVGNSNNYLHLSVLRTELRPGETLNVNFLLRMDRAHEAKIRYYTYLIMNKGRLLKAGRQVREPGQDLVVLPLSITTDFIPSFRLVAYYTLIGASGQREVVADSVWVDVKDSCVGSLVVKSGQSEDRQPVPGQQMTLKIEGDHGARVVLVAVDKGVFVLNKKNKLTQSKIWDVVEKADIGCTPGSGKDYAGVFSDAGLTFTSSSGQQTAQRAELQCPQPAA
# Sequence of complement iC3b on erythrocytes (EAiC3b) (human) (P01024 749-1303 limits assumed, chain 2 of 3): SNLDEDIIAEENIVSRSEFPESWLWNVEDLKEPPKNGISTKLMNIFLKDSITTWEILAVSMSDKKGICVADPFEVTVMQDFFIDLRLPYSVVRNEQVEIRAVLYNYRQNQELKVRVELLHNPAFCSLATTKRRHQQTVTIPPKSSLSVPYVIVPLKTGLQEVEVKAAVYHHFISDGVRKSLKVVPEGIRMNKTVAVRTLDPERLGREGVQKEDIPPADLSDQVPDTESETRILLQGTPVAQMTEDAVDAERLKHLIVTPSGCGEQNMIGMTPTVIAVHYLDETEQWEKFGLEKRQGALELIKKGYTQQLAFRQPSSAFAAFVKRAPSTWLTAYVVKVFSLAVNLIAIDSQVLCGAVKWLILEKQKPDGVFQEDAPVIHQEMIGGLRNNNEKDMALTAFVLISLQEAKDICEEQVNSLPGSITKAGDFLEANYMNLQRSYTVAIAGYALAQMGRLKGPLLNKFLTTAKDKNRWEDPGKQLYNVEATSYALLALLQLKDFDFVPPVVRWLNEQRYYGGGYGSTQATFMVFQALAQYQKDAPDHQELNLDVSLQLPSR
# Sequence of complement iC3b on erythrocytes (EAiC3b) (human) (P01024 1321-1663 limits assumed, chain 3 of 3): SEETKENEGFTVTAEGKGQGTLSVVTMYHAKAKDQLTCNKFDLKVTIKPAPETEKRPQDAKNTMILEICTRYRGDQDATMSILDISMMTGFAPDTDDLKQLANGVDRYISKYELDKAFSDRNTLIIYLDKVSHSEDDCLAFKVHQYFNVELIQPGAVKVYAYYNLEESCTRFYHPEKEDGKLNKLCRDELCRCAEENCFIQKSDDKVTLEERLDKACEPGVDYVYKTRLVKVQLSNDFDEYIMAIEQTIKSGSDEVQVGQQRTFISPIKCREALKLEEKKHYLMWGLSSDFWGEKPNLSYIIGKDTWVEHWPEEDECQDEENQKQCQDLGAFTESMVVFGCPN
Substance,IC50 [1] [µM],IC50 [2] [µM],IC50 [3] [µM],t1/2 of dissociation [4] [h],Kd [5] [µM],t1/2 of association [6] [h],fold increase in NIF binding to activated vs resting cells [7] [fold],Kd [8] [µM],IC50 [9] [µM],concentration for complete inhibition [9] [mg/mL]
recombinant CD11b A domain (from UniProt P11215 144-337) (receptor),1000,0.001,0.001,–,–,–,–,–,–,–
recombinant Ancylostoma caninum neutrophil adhesion inhibitor (NIF) (ligand),–,–,–,7.6,0.00035 to 0.0013,0.25,12,0.001,0.005,3
